# Results published in patent US20250353921A1 (ASTRIA THERAPEUTICS, published 2025).
# Several values for one entry are separate records, joined by “and”; a condition that tells them apart may be missing. Identical values can stand only once.
# T1: human OX40 (TNFRSF4, CD134) on cells (human, UniProt P43489 29-277)
# T1 sequence: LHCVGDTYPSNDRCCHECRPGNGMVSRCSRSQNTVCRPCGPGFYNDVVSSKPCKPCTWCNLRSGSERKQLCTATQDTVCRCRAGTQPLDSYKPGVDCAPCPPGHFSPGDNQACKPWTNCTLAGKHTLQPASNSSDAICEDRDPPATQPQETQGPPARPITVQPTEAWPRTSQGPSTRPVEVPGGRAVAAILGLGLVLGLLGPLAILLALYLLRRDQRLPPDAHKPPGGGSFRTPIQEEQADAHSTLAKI
# T2: Human OX40 (Acro Biosystems, catalog NO: OXO-H5224) protein (human, UniProt P43489 29-216)
# T2 construct: Bought protein; also called recombinant human OX40 receptor; recombinant human OX40 protein
# T2 sequence: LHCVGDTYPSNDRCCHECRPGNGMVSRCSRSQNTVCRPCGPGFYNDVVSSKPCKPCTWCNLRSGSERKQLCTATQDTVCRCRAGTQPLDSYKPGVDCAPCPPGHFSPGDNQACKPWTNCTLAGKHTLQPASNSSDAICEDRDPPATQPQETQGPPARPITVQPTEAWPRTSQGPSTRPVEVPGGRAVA
# T3: human OX40-CRD-avi-his (human, UniProt P43489 29-170, limits assumed)
# T3 construct: Only the CRD region of the ECD was used
# T3 sequence: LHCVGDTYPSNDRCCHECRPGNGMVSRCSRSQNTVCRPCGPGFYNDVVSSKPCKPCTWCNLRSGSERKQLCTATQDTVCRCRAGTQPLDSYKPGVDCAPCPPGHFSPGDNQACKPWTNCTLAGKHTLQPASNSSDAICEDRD
# T4: Human (hu) OX40 protein (Example 5 cross reactivity) (human, UniProt P43489 29-216, limits assumed)
# T4 construct: whole entry named
# T4 sequence: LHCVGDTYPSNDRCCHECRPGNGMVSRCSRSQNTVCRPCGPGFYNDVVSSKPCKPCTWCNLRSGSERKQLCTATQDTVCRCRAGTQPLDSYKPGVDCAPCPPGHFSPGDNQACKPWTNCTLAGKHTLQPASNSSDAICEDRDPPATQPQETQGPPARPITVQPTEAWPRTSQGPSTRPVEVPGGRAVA
# T5: Human CD32a (167 His), Sino Biological 10374-H08H1 (human, UniProt P12318 34-218)
# T5 construct: also called FcγRIIa167H
# T5 sequence (looked up): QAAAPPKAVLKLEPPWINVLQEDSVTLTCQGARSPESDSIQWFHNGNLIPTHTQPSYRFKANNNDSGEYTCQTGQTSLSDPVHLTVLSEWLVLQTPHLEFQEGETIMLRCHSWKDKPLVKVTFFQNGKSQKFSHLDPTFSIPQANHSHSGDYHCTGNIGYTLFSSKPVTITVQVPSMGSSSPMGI
# Legend:
# [1] = biological target: T1, human OX40 (TNFRSF4, CD134) on cells; experiment: cell-based or functional assay
# [2] = biological target: T1, human OX40 (TNFRSF4, CD134) on cells; experiment: flow cytometry on Jurkat-NFκB (OX40) cells, detection with anti-human IgG Fc-AF647
# [3] = biological target: T2, Human OX40 (Acro Biosystems, catalog …); experiment: SPR Biacore 8K+
# Protocol: (§1) Measurements were performed on a Biacore 8K+ instrument (Cytiva Life Sciences) the Biacore 8K+ Control Software and analyzed with the Biacore Insight Evaluation Software (v3.0). […] After each binding event, baseline levels were restored using a regeneration solution on both flow-paths. HBS-EP+pH 7.4 solution were used as running buffer. Data was analyzed using the SCK evaluation method of the Biacore Insight Evaluation Software and kinetic parameters were determined using the 1:1 binding fitting model.
# [4] = biological target: T1, human OX40 (TNFRSF4, CD134) on cells; experiment: cell-based or functional assay; remark: listed apart in the source
# [5] = biological target: T1, human OX40 (TNFRSF4, CD134) on cells; experiment: cell-based or functional assay; remark: listed apart in the source
# [6] = biological target: T1, human OX40 (TNFRSF4, CD134) on cells; experiment: cell-based or functional assay; remark: listed apart in the source
# [7] = biological target: T1, human OX40 (TNFRSF4, CD134) on cells; experiment: cell-based or functional assay; remark: listed apart in the source
# [8] = biological target: T1, human OX40 (TNFRSF4, CD134) on cells; experiment: flow cytometry on Jurkat-NF-κB-OX40 cells, detection with PE anti-human IgG Fc, occupancy in % of the saturating dose; in the presence of 0.3 µg/ml OX40L; time point not stated on the sheet
# [9] = biological target: T2, Human OX40 (Acro Biosystems, catalog …); experiment: SPR Biacore 8K+, single cycle kinetics, antibody captured by anti-human Fc, OX40 analyte, pH 7.4, 25 °C
# Protocol: as §1
# (§2) Each measurement is the mean of three identical replicate conditions.
# human OX40-CRD-avi-his = biological target: T3, human OX40-CRD-avi-his; experiment: SPR Biacore T200, IgG captured by anti-human antibody, antigen as analyte, 1:1 Langmuir
# Protocol: (§3) The binding kinetics were measured on a Biacore T200 instrument at RT and analyzed with the Biacore T200 Evaluation Software (v3.0). Analyzed data were exported using the Biacore T200 Kinetics Summary software (v3.0). […] Experimental data were processed using a 1:1 Langmuir model with global Rmax.
# cynomolgus OX40-ECD-his = biological target: T6, cynomolgus OX40-ECD-his (cynomolgus); experiment: as above
# T6 construct: extracellular domain; also called Cyno OX40
# Protocol: as §3
# [10] = biological target: T1, human OX40 (TNFRSF4, CD134) on cells; experiment: flow cytometry on Jurkat-NF-κB-OX40 cells, detection with PE anti-human IgG Fc, occupancy in % of the saturating dose; in the presence of 5 µg/ml OX40L; time point not stated on the sheet
# rabbit (rb) OX40 protein = biological target: T7, rabbit (rb) OX40 protein (rabbit); experiment: SPR Biacore 8K+, single cycle kinetics, MAB10 captured by anti-human Fc, OX40 analyte
# T7 construct: also called Rabbit OX40
# Protocol: (§4) Measurements were performed on a Biacore 8K+ instrument using the Biacore 8K+ Control Software and analyzed with the Biacore Insight Evaluation Software (v3.0). Briefly, a goat anti-human IgG (Fc specific) antibody was immobilized to approximately 11,000-14,000 resonance units (RU) on a Series S CM5 Sensor Chip using an amine coupling kit in both flow cells.
# (§5) After each binding event, baseline levels were restored using 10 mM Glycine-HCl pH 1.5 as regeneration solution on both flow-paths. HBS-EP+pH 7.4 solution was used as running buffer. Data were analyzed using the SCK evaluation method of the Biacore Insight Evaluation Software and kinetic parameters were determined using the 1:1 binding fitting model. […] Interactions resulting in a response of less than 10 RU were considered as no binding (NB).
# (§6) Each measurement represents the mean of three identical replicate conditions.
# [11] = biological target: cynomolgus monkey (cy) OX40 protein (Example 5) (cynomolgus monkey); experiment: as above
# Protocol: as §4, §5, §6
# [12] = biological target: T4, Human (hu) OX40 protein (Example 5 …); experiment: as above
# Protocol: as §4, §5, §6
# [13] = biological target: T8, Human CD16a (176F), Sino Biological 10389-H08H (human, UniProt P08637 17-208); experiment: SPR Biacore 8K+, ratio of KD values
# T8 construct: also called FcγRIIIa176F
# T8 sequence (P08637 17-208 limits assumed): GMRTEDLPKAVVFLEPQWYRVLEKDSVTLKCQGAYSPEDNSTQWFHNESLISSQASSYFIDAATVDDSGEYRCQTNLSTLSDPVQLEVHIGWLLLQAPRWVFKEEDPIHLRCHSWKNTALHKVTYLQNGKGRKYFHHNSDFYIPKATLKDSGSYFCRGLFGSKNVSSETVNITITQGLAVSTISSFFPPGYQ
# Protocol: (§7) Measurements were performed on a Biacore 8K+ instrument (Cytiva Life Sciences) using the Biacore 8K+ Control Software and analyzed with the Biacore Insight Evaluation Software (v3.0). […] After each binding event, baseline levels were restored using a regeneration solution on both flow-paths. HBS-EP+pH 7.4 solution were used as running buffer. Data was analyzed using the MCK evaluation method of the Biacore Insight Evaluation Software and kinetic parameters were determined using the 1:1 binding and steady-state affinity methods.
# as §2
# [14] = biological target: T5, Human CD32a (167 His), Sino Biological …; experiment: SPR Biacore 8K+, ratio of KD values
# Protocol: as §7, §2
# [15] = biological target: T9, Human CD16b (NA2 allotype), Sino Biological 11046-H08H (human, UniProt O75015 17-200); experiment: SPR Biacore 8K+, ratio of KD values
# T9 construct: also called FcγRIIIb
# T9 sequence (O75015 17-200 N65S limits assumed): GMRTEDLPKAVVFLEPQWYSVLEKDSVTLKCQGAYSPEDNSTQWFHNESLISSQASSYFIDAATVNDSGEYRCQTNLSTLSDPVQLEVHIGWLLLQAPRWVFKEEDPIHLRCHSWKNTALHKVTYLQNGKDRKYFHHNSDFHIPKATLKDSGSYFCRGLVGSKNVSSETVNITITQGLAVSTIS
# Protocol: as §7, §2
EC50 (read off the curve) [2],fold increase in binding affinity against GBR830 [3],"EC50, inhibition of T cell proliferation [4]","average proliferation index (Av), coated T cell agonism assay [5]","ADCC EC50, in vitro differentiated Tregs [6]","ADCC EC50, activated T cells [7]",EC50 (read off the curve) [8],Kd [9],koff [9],kon [9],Kd (human OX40-CRD-avi-his),koff (human OX40-CRD-avi-his),kon (human OX40-CRD-avi-his),Kd (cynomolgus OX40-ECD-his),EC50 (read off the curve) [10],Binder,other results
~0.09 µg/mL,8 fold,0.17 nM and 0.24 ug/ml,0.97,0.089 nM and 0.015 µg/mL,0.026 nM and 0.004 ug/ml,~0.2 nM,6.8 nM,0.0016 s⁻¹,230000 M⁻¹ s⁻¹,6 nM,0.00163 s⁻¹,274000 M⁻¹ s⁻¹,557 nM,~0.4 nM,"MAB1 IgG1 (antibody, Human IgG1, kappa) heavy: not shown light: EIVLTQSPATLSLSPGERATLSCRASSSVSYMHWYQQKPGQAPRPWIYATSNRATGIPARFSGSGSGTDYTLTISSLEPEDFAVYYCQQFGAWPWTFGQGTKVEIKRTVAAPSVFIFPPSDEQLKSGTASVVCLLNNFYPREAKVQWKVDNALQSGNSQESVTEQDSKDSTYSLSSTLTLSKADYEKHKVYACEVTHQGLSSPVTKSFNRGEC","fold decrease in ADCC of activated T cells against KHK4083 [1]: 3 fold; Fold change to GBR 830, proliferation EC50 [4]: 33 fold; Fold Change to GBR 830, ADCC EC50, Tregs [6]: 74 fold; Fold Change to GBR 830, ADCC EC50, activated T cells [7]: 3.25 fold; koff (cynomolgus OX40-ECD-his): 0.0405 s⁻¹; kon (cynomolgus OX40-ECD-his): 72700 M⁻¹ s⁻¹"
,8 fold,,,,,~0.4 nM,7.2 nM,0.0016 s⁻¹,230000 M⁻¹ s⁻¹,,,,,~0.7 nM,"MAB10 (antibody, human IgG1, kappa, MAB1 with M252Y, S254T and T256E (EU numbering) in the IgG1 Fc; also called MAB1 Heavy Chain + YTE) heavy: QVTLKESGPALVKPTQTLTLTCSFSGFSLSTSGMGVGWIRQPPGKALEWIAHIWWDDDKYYNTALKTRLTISKDTSKNQVVLTMTNMDPVDTATYYCARIDWDGFAYWGQGTLVTVSSASTKGPSVFPLAPSSKSTSGGTAALGCLVKDYFPEPVTVSWNSGALTSGVHTFPAVLQSSGLYSLSSVVTVPSSSLGTQTYICNVNHKPSNTKVDKKVEPKSCDKTHTCPPCPAPELLGGPSVFLFPPKPKDTLYITREPEVTCVVVDVSHEDPEVKFNWYVDGVEVHNAKTKPREEQYNSTYRVVSVLTVLHQDWLNGKEYKCKVSNKALPAPIEKTISKAKGQPREPQVYTLPPSRDELTKNQVSLTCLVKGFYPSDIAVEWESNGQPENNYKTTPPVLDSDGSFFLYSKLTVDKSRWQQGNVFSCSVMHEALHNHYTQKSLSLSPGK light: EIVLTQSPATLSLSPGERATLSCRASSSVSYMHWYQQKPGQAPRPWIYATSNRATGIPARFSGSGSGTDYTLTISSLEPEDFAVYYCQQFGAWPWTFGQGTKVEIKRTVAAPSVFIFPPSDEQLKSGTASVVCLLNNFYPREAKVQWKVDNALQSGNSQESVTEQDSKDSTYSLSSTLTLSKADYEKHKVYACEVTHQGLSSPVTKSFNRGEC","EC50 (inhibition) of NFκB signaling, Jurkat-NFκB-OX40 cells, 0.07 µg/mL OX40L [1]: 0.79 nM; EC50 (inhibition) of NFκB signaling, Jurkat-NFκB-OX40 cells, 5 µg/mL OX40L [1]: 4.59 nM; Kd (rabbit (rb) OX40 protein): 3300 nM; koff (rabbit (rb) OX40 protein): 0.03 s⁻¹; kon (rabbit (rb) OX40 protein): 9000 M⁻¹ s⁻¹; Kd [11]: 268 nM; koff [11]: 0.052 s⁻¹; kon [11]: 200000 M⁻¹ s⁻¹; Kd [12]: 6.7 nM; koff [12]: 0.0021 s⁻¹; kon [12]: 300000 M⁻¹ s⁻¹; fold-change of KD relative to MAB1 [13]: 3 fold; fold-change of KD relative to MAB1 [14]: 3.1 fold; fold-change of KD relative to MAB1 [15]: 4.3 fold"
~0.3 µg/mL,,5.67 nM and 0.833 ug/ml,0.98,0.833 nM and 0.121 µg/mL,0.078 nM and 0.13 ug/ml,~0.7 nM,59.3 nM,0.0086 s⁻¹,150000 M⁻¹ s⁻¹,80.4 nM,0.00654 s⁻¹,81300 M⁻¹ s⁻¹,3040 nM,,"GBR 830 (telazorlimab) (antibody, human IgG1, kappa, IgG1; also called Antibody 830; ISB830) heavy: not shown light: EIVLTQSPATLSLSPGERATLSCRASSSVSYMHWYQQKPGQAPRPWIYATSNRATGIPARFSGSGSGTDYTLTISSLEPEDFAVYYCQQWSSNPWTFGQGTKVEIKRTVAAPSVFIFPPSDEQLKSGTASVVCLLNNFYPREAKVQWKVDNALQSGNSQESVTEQDSKDSTYSLSSTLTLSKADYEKHKVYACEVTHQGLSSPVTKSFNRGEC",
